The source of these data is article PMC10192418 (2023).

The labels stand for the following.
B1: linear peptide 3 [modified: 5(6)-carboxyfluorescein on the N-terminus; 5(6)-carboxyfluorescein on the N-terminus] / B-RCAL (BÜHLMANN recombinant calprotectin; His6-linker-S100A9-linker-S100A8) [human] (parent complex)
chain 1: RSPESVAFPMFQSHWYSG
chain 2: MTCKMSQLERNIETIINTFHQYSVKLGHPDTLNQGEFKELVRKDLQNFLKKENKNEKVIEHIMEDLDTNADKQLSFEEFIMLMARLTWASHEKMHEGDEGPGHHHKPGLGEGTPLEVLFQGPMLTELEKALNSIIDVYHKYSLIKGNFHAVYRDDLKKLLETECPQYIRKKGADVWFKELDINTDGAVNFQEFLILVIKMGVAAHKKSHEESHKE

The variants in this assay derive from B1. Put plainly: SPR; peptide injected at 500 nM; single measurement; calprotectin immobilized; read off a plot. (In SPR one partner is held on a chip, and binding of the other changes the refractive index at the surface.)
In the case of chain 1 RSPASVAFPMFQSHWYSG, the response is ~130 RU.
